# Data as given in patent publication US7803757B2, “Peptides based on the sequence of human lactoferrin and their use” (PharmaSurgics in Sweden AB, priority 1998, dated 2010).
# B1: human lactoferrin (protein, UniProt P02788 20-710, looked up)
# Lactotransferrin: GRRRSVQWCAVSQPEATKCFQWQRNMRKVRGPPVSCIKRDSPIQCIQAIAENRADAVTLDGGFIYEAGLAPYKLRPVAAEVYGTERQPRTHYYAVAVVKKGGSFQLNELQGLKSCHTGLRRTAGWNVPIGTLRPFLNWTGPPEPIEAAVARFFSASCVPGADKGQFPNLCRLCAGTGENKCAFSSQEPYFSYSGAFKCLRDGAGDVAFIRESTVFEDLSDEAERDEYELLCPDNTRKPVDKFKDCHLARVPSHAVVARSVNGKEDAIWNLLRQAQEKFGKDKSPKFQLFGSPSGQKDLLFKDSAIGFSRVPPRIDSGLYLGSGYFTAIQNLRKSEEEVAARRARVVWCAVGEQELRKCNQWSGLSEGSVTCSSASTTEDCIALVLKGEADAMSLDGGYVYTAGKCGLVPVLAENYKSQQSSDPDPNCVDRPVEGYLAVAVVRRSDTSLTWNSVKGKKSCHTAVDRTAGWNIPMGLLFNQTGSCKFDEYFSQSCAPGSDPRSNLCALCIGDEQGENKCVPNSNERYYGYTGAFRCLAENAGDVAFVKDVTVLQNTDGNNNEAWAKDLKLADFALLCLDGKRKPVTEARSCHLAMAPNHAVVSRMDKVERLKQVLLHQQAKFGRNGSDCPDKFCLFQSETKNLLFNDNTECLARLHGKTTYEKYLGPQYVAGITNLKKCSTSPLLEACEFLRK
# Columns and labels:
# Candida krusei = experiment: fungicidal activity against Candida krusei strains (Example 4); format: cell-based; details: Exp. I
# Experimental: (§1) In this example the fungicidal activity of the peptides according to the invention was tested and compared to the fungicidal activity of human lactoferrin. Different concentrations of hLF, peptide 3 and peptide 4 were incubated with different strains of Candida albicans and Candida krusei during 1-2 hours at 37° C. in 0.05 mM KCl at pH 7.0 at two different occasions—experiment I and II, respectively. After incubation samples were taken for plating on Saboroud plates.
# E. coli O14 = experiment: bactericidal activity, incubation with E. coli O14 (Example 3, exp. I and III); format: cell-based
# Experimental: (§2) Human lactoferrin (hLF), peptide 3, and peptide 4, respectively, were incubated with two different strains of E. coli, E. coli O14 (experiment I) and O6K5 (experiment II), in diluted growth medium ( 1/100 BHI—brain heart infusion) for 2 hours. The peptides were also incubated with E. coli O14 in 0.05 mM KCl (pH 7) without any growth medium (experiment III). Different concentrations of the peptides were tested.
# (§3) After the incubation, samples were taken for bacterial plating. Serial dilutions of five- and fourfold steps were used in experiments I and II, respectively, and of twofold steps in experiment III.
# (§4) The concentrations of the different peptides required for killing 100% (experiments I and II) or 90% (experiment III) of the bacteria are given in table 2.
# [1] = test system: LPS-induced IL-6 response in a monocytic cell line (THP-1); experiment: inhibition of LPS-induced IL-6 response in THP-1 cells (Example 5); format: cell-based; details: IL-6 response in THP-1 cells, agent added 30 minutes after LPS
# Experimental: In this example an in vitro test was performed to study the anti-inflammatory activity of the peptides according to the invention. More precisely, the inhibitory effect of the peptides according to the invention on the LPS-induced IL-6 response in a monocytic cell line (THP-1) was studied and compared to the effect of human lactoferrin by use of the method described by I. Mattsby-Baltzer et al., Pediatr. Res. 40:257-262, 1996. The IL-6 response in the THP-1 cells was induced by addition of LPS. hLF, peptide 3 and peptide 4, respectively, were added 30 minutes after LPS.
# Candida albicans [2] = experiment: fungicidal activity against Candida albicans, comparison with EP-A-0 629 347 peptides (Example 7); format: cell-based; details: C. albicans, I (tenfold steps)
# Experimental: In this example an in vitro test was performed to compare the bactericidal and fungicidal activity of the peptides according to the invention with peptides described in EP-A-0 629 347. The peptide according to the invention used was peptide 4, and the peptides according to EP-A-0 629 347 called Morinaga 10, Morinaga 11, Morinaga 12, and Morinaga 13.
# The peptides were incubated with E. coli O14 and Candida albicans. Two concentrations of C. albicans yeast cells were tested, 5·10^6 and 5·10^3 per ml. Different concentrations of the peptides were tested.
# After the incubation, samples were taken for bacterial plating. Serial dilutions of tenfold steps were used in the experiments marked with I in table 5 and of twofold steps in the experiments marked with II.
# C. albicans (ATCC 64549) = experiment: microbe, parasite or virus in culture; details: C. albicans ATCC 64549, 2×10^5 cells/ml, BHI diluted 1/100
# Experimental: In the examples, the minimal microbicidal concentrations (MMC) and minimal inhibitory concentrations (MIC) were determined as follows, unless otherwise specified in the examples. Bacterial or fungal strains were cultured in BHI medium over night at 37° C. A volume of the culture was transferred to a new tube with BHI and incubated for two more hours. Thereafter the cells were spun down and the pellet was suspended in BHI medium diluted 1/100 (1% BHI). The concentration of bacterial or fungal cells was spectrophotometrically determined at 650 nm. The microbial concentrations were also determined by viable counts. Peptides serially diluted in 1% BHI by twofold or tenfold steps were added in triplicate to the wells of a microtiterplate (200 μl per well). The bacterial or fungal cell solutions were added in 10 μl volumes to give a final concentration of approximately 1-5×10^5 cells per ml in the well. The microplate was incubated at 37° C. in a humid chamber for two hours. […] The microplate was incubated for another 20 hours at 37° C. and thereafter analysed spectrophotometrically at 650 nm in a microplate reader (Emax, Molecular Devices, USA). […] The MIC value was defined as the concentration giving no increase in the absorbance value above the background level after 20 hours of incubation. […]
# Candida albicans [3] = experiment: fungicidal activity against Candida albicans strains (Example 4); format: cell-based
# Experimental: as §1
# E. coli O6K5 [4] = experiment: urinary tract infection in mice, bacteria (CFU) in kidney (Example 6); format: in vivo; details: Exp II, mouse strain C3H/Tif, 500 μg per mouse orally 30 minutes after instillation, 24 hours
# Experimental: E. coli O6K5 was instilled into the urinary bladder of mice. 30 minutes after instillation the different agents specified in table 5 were administered orally in an amount of 500 μg per mouse and 24 hours after instillation the number of bacteria (CFU) present in bladder and in kidney was determined.
# The control group consisted of 10 animals in experiment I and of 23 animals in experiment II. The animals in the control groups were given tap water instead of peptide or hLF.
# E. coli O6K5 [5] = experiment: bactericidal activity, incubation with E. coli O6K5 (Example 3, exp. II); format: cell-based; details: Exp. II: 100% killing, E. coli O6K5, 1/100 BHI, 2 hours
# Experimental: as §2, §3, §4
molecule,measurement,setting,value
B1,Concentration of agent for 99% killing,"Candida krusei; C. krusei CCUG 969, 0.05 mM KCl pH 7.0",25 µg/mL
same,Concentration of agent for 99% killing,"Candida krusei; C. krusei CCUG 35849, 0.05 mM KCl pH 7.0",12.5 µg/mL
same,Concentration of agent for 100%/90% killing,"E. coli O14; Exp. I: 100% killing, E. coli O14, 1/100 BHI, 2 hours",400 µg/mL
same,Concentration of agent for 100%/90% killing,"E. coli O14; Exp. III: 90% killing, E. coli O14, 0.05 mM KCl (pH 7) without growth medium",>4000 µg/mL
same,% inhibition of LPS response,[1],15%
same,Concentration of agent for 100% killing,Candida albicans [2]; 5 · 10^3 yeast cells per ml,>2000 µg/mL
same,Concentration of agent for 100% killing,Candida albicans [2]; 5 · 10^6 yeast cells per ml,>1000 µg/mL
same,MIC,C. albicans (ATCC 64549),1000 µg/mL
same,MMC99%,C. albicans (ATCC 64549),>1000 µg/mL
same,Concentration of agent for 99% killing,"Candida albicans [3]; Exp. I, C. albicans ATCC 64549, 0.05 mM KCl pH 7.0, 1-2 hours 37° C.",>50 µg/mL
same,Concentration of agent for 99% killing,"Candida albicans [3]; Exp. I, C. albicans CCUG 90028, 0.05 mM KCl pH 7.0",>50 µg/mL
same,Concentration of agent for 99% killing,"Candida albicans [3]; Exp. II, C. albicans ATCC 64549, 0.05 mM KCl pH 7.0",>200 µg/mL
same,Concentration of agent for 99% killing,"Candida albicans [3]; Exp. II, C. albicans CCUG 599, 0.05 mM KCl pH 7.0",>200 µg/mL
same,Concentration of agent for 99% killing,"Candida albicans [3]; Exp. II, C. albicans CCUG 1759, 0.05 mM KCl pH 7.0",>200 µg/mL
same,"Statistical comparison of treatment group with control group of the number of bacteria, CFU, present in kidney (p, Mann-Whitney)",E. coli O6K5 [4],p = 0.006
same,Concentration of agent for 100%/90% killing,E. coli O6K5 [5],2000 µg/mL
